Test [1] concerns the target T1, 纯化的/生物素化的全长人IGF-I受体 (purified, biotinylated full-length human IGF-I receptor) (human, UniProt P08069 31-1367, biotinylated with PEO-maleimide-biotin (Kd and competition ELISAs); unmodified when coated directly).
T1 construct: mature; also called 生物素化的IGF-I受体; 纯化的人IGF-I受体
As to the kind of experiment: ELISA titration of the Fab on human IGF-I receptor.

Test [2] concerns the target 人肿瘤细胞上的人IGF-I受体 (endogenous human IGF-I receptor of human tumour cells: MCF-7, NCI-H838, SaOS-2 and others) (human) (UniProt P08069). As to the kind of experiment: cell-based or functional assay.
The target is the same in test [3]. As to the kind of experiment: displacement of biotin-IGF-I from MCF-7 cells at 4℃, 2 h; capture ELISA.
Test [4] addresses T1, 纯化的/生物素化的全长人IGF-I受体 (purified, …). As to the kind of experiment: ELISA titration on biotinylated human IGF-I receptor captured on streptavidin, one-site non-linear regression.
The target in test [5] is 过量表达于3T3样细胞上的人Y1251F IGF-I受体 (human IGF-I receptor with Y1251F mutation on 3T3-like cells) (human) (UniProt P08069). As to the kind of experiment: cell ELISA on dried cells overexpressing human Y1251F IGF-I receptor, 12 min colour development.
The target in test [6] is 人肿瘤细胞上的人IGF-I受体 (endogenous human IGF-I receptor of human tumour cells: MCF-7, NCI-H838, SaOS-2 and others) (human) (UniProt P08069). Put plainly: displacement of biotin-IGF-I from MCF-7 cells at 37℃, 30 min, 10-100 μg/mL antibody; capture ELISA.

T1 sequence (P08069 31-1367 limits assumed): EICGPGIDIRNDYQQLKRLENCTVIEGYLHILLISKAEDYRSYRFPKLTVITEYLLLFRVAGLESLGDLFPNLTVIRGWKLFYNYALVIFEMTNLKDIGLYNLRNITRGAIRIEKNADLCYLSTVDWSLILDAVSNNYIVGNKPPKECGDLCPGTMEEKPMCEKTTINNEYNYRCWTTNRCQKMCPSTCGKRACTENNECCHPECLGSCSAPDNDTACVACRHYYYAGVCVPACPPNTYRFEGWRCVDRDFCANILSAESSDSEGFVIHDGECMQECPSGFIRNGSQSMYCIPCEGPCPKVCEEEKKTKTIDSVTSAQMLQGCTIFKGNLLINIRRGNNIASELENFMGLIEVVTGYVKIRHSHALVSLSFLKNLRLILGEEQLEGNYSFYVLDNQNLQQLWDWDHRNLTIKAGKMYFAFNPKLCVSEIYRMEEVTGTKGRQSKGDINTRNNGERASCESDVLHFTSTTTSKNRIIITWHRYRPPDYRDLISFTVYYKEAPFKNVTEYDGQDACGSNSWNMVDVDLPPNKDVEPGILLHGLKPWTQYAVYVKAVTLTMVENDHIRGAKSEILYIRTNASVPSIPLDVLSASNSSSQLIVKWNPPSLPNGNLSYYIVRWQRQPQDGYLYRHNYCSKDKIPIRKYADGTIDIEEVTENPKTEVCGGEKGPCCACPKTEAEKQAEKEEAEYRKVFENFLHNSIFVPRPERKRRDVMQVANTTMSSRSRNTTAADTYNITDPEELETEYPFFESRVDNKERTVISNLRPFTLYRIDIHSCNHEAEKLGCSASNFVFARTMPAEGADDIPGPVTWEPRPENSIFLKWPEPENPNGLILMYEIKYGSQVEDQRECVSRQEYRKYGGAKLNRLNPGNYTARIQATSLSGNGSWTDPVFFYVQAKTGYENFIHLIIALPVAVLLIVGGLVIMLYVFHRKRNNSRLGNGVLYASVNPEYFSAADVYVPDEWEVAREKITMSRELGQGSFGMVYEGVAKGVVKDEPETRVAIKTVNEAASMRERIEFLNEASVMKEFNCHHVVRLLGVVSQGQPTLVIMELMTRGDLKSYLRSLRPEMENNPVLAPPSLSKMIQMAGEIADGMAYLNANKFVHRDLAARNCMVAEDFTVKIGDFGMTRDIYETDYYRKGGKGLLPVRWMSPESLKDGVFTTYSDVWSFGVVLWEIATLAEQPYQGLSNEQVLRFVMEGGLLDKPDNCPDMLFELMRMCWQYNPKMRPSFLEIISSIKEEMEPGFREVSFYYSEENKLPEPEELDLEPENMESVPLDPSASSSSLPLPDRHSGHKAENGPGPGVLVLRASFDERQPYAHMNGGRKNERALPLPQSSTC

B1: EM164抗体的Fab片段 (Fab fragment of EM164, papain digest) (Fab, V domains shown)
VH: QVQLQQSGAELVKPGASVKLSCKASGYTFTSYWMHWVKQRPGQGLEWIGEINPSNGRTNYNEKFKRKATLTVDKSSSTAYMQLSSLTSEDSAVYYFARGRPDYYGSSKWYFDVWGAGTTVTVSS
VL: DVLMTQTPLSLPVSLGDQASISCRSSQSIVHSNVNTYLEWYLQKPGQSPKLLIYKVSNRFSGVPDRFSGSGSGTDFTLRISRVEAEDLGIYYCFQGSHVPPTFGGGTKLEIKR
notes: also called EM164 Fab
B1 came in with a Kd in test [1] of 300 pM.

B2: 鼠抗IGF-I受体抗体EM164 (murine anti-IGF-I receptor antibody EM164) (antibody, V domains shown)
VH: QVQLQQSGAELVKPGASVKLSCKASGYTFTSYWMHWVKQRPGQGLEWIGEINPSNGRTNYNEKFKRKATLTVDKSSSTAYMQLSSLTSEDSAVYYFARGRPDYYGSSKWYFDVWGAGTTVTVSS
VL: DVLMTQTPLSLPVSLGDQASISCRSSQSIVHSNVNTYLEWYLQKPGQSPKLLIYKVSNRFSGVPDRFSGSGSGTDFTLRISRVEAEDLGIYYCFQGSHVPPTFGGGTKLEIKR
notes: Purified from hybridoma; also called EM164抗体; muEM164
For the molecule B2, in test [2], the MCF-7 cell cycle, percent of cells in G0/G1 phase with IGF-I (20 ng/mL) plus EM164 (20 μg/mL); 50% without EM164 came out at 77%; the MCF-7 cell cycle, percent of cells in S phase with IGF-I (20 ng/mL) plus EM164 (20 μg/mL); 41% without EM164 was 9%; the percent inhibition of IGF-I-stimulated growth in serum-free medium, MTT assay, A 375 (melanoma) turned out to be 90%; the percent inhibition of IGF-I-stimulated growth in serum-free medium, MTT assay, A431 (epidermoid) was determined as 85%. In test [2], the percent inhibition of IGF-I-stimulated growth in serum-free medium, MTT assay, Calu-6 was 85%; the percent inhibition of IGF-I-stimulated growth in serum-free medium, MTT assay, Colo 205 (colon) is 50%; the percent inhibition of IGF-I-stimulated growth in serum-free medium, MTT assay, HT-29 stood at 60%; the percent inhibition of IGF-I-stimulated growth in serum-free medium, MTT assay, SK-Mel-37 was 85%. Moreover, in test [2], the percent inhibition of IGF-I-stimulated growth in serum-free medium, MTT assay, SK-N-SH (neuroblastoma) is 85%. In test [3], this molecule returned a percent displacement of pre-bound biotinylated IGF-I of 50%. For the same molecule, the Kd in test [4] is 100 pM. Besides, the absorbance (cell ELISA signal) (absorbance units) in test [5] worked out at 0.88. In test [6], this molecule displayed a percent displacement of pre-bound biotinylated IGF-I of 90%.

(Values after patent publication CN1886424A (dated 2006).)
